Assay results from patent US20250361297A1, “ANTI- SIGLEC-15 BINDING MOLECULES AND METHODS OF USE” (ADAPTAM THERAPEUTICS, S.L., priority 2024, published 2025).

Key:
human Siglec-15 [1] = biological target: T1, human Siglec-15 (Homo sapiens, UniProt Q6ZMC9); experiment: Titration of full-length IgG1 antibodies on human Siglec-15 (ELISA / flow cytometry on MOLM-13 Siglec-15 cells); format: binding; details: full-length human IgG1, titrated from 10 μg/ml
T1 construct: expressed in transfected cells
T1 sequence (Q6ZMC9 20-328): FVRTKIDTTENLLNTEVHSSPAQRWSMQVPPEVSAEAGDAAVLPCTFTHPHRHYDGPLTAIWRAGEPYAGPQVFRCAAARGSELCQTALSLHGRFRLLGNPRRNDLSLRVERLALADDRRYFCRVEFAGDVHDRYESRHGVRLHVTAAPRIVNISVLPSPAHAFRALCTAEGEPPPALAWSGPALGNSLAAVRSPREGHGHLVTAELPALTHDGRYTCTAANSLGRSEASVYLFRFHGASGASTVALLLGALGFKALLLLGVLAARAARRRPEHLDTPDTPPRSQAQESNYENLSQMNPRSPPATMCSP
Method: The binding efficacy of the converted full-length IgG1 anti-Siglec-15 antibodies was then evaluated using both ELISA and flow cytometry. By immobilizing the antigen and titrating the antibodies starting at a concentration of 10 μg/ml, binding kinetics were determined via ELISA, using an anti-human IgG Fab-specific secondary antibody for detection. Palivizumab served as the negative control in these assays (FIG. 8A). Complementary to the ELISA, flow cytometry assays provided insight into the binding behavior of the antibodies on the cell surface. […] From these assays, EC50 values were calculated, offering a quantitative measure of the antibodies' affinity towards Siglec-15, and leading to the selection of 7 unique hits (Table 10).
For the ELISA, antigens were immobilized on high-binding plates, and the full-length IgG1 anti-Siglec-15 antibodies were titrated beginning at a concentration of 10 μg/ml. […] Optical densities were measured to generate binding curves from which EC50 values were derived. […] Flow cytometric analysis was conducted, and fluorescence intensity was used to calculate EC50 values, providing a quantitative assessment of the antibodies' cell surface binding efficacy. […] Antibodies were titrated starting at a concentration of 10 μg/ml and detected with an anti-human Fc-specific secondary antibody to detect bound primary antibodies. […]

mouse Siglec-15 = biological target: T2, mouse Siglec-15 (Mus musculus, UniProt A7E1W8); experiment: Titration on HEK293T cells expressing mouse Siglec-15 (flow cytometry); format: binding; details: titrated from 10 μg/ml
T2 construct: HEK293T cells were genetically engineered to express full-length mouse Siglec-15; expressed in transfected cells; host or cells: HEK293T
T2 sequence (A7E1W8 24-342): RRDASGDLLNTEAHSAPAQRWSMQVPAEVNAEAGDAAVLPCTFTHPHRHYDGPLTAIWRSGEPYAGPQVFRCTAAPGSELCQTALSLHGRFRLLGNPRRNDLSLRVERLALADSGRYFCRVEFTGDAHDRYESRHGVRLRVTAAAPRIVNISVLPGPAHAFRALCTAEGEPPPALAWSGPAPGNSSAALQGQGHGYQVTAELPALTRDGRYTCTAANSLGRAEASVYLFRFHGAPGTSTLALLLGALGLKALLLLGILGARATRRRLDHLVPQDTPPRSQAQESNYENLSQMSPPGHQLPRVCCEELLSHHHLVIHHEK
Method: Cross-species reactivity and domain-specific binding of the full-length anti-Siglec-15 antibody candidates were evaluated. The antibodies were titrated against HEK293T cells expressing mouse Siglec-15 or HEK293T cells expressing a truncated human Siglec-15 consisting solely of domain 2 (FIG. 9). […] However, the binding to mouse Siglec-15 was evident for all tested antibodies, with EC50 values calculated to rank the affinity of the antibodies.
For the ELISA, antigens were immobilized on high-binding plates, and the full-length IgG1 anti-Siglec-15 antibodies were titrated beginning at a concentration of 10 μg/ml. After washing, an anti-human IgG Fab-specific HRP-conjugated secondary antibody was applied for detection. […] Optical densities were measured to generate binding curves from which EC50 values were derived. […] Flow cytometric analysis was conducted, and fluorescence intensity was used to calculate EC50 values, providing a quantitative assessment of the antibodies' cell surface binding efficacy. […] Antibodies were titrated starting at a concentration of 10 μg/ml and detected with an anti-human Fc-specific secondary antibody to detect bound primary antibodies. The half-maximal effective concentration (EC50) was calculated for each antibody to determine its binding affinity to mouse Siglec-15. Results were analyzed and ranked based on the EC50 values.

human Siglec-15 [2] = biological target: T1, human Siglec-15; experiment: Competitive flow cytometry assay with benchmark antibodies; format: binding
Method: Epitope mapping assay by Flow cytometry: Competition with benchmark mouse IgG antibodies: 50,000 cells/well of THP-1 S15 OE were added to a round bottom 96 well plate, and centrifuged at 450×G for 5 minutes, and the supernatant was discarded. Human anti-siglec-15 IgG antibodies (starting at 198 nM, 3-fold serial dilution in staining buffer) were added to 100 μl of staining buffer and cells were resuspended with it and incubated for 40 minutes on ice. 100 μl of staining buffer were added to wells, centrifuged at 450× G for 5 minutes and the supernatants discarded. Benchmark mouse IgG antibodies were diluted at 33.3 nM and cells resuspended in 100 μl of the mix and incubated for 40 minutes on ice. Then, 100 μl of staining buffer were added to wells, centrifuged at 450×G for 5 minutes and the supernatants discarded. The secondary antibody anti-mouse IgG-Alexa647 was prepared at 1:200 dilution in 100 μl of staining buffer and added to each well, and cells were incubated for 40 minutes on ice. Cells were washed with 100 μl of staining buffer and centrifuged at 450×G for 5 minutes to discard the supernatant. Cells were resuspended in 150 μl of staining buffer and acquired in a flow cytometer.

Siglec-15 positive cells = experiment: Internalization assay (Zenon pHrodo iFL Green); format: cell-based; details: kinetics over 1, 2, 4, 16, and 24 hours
Method: Internalization assay (Zhenon pHrodo): Sufficient volumes of 4× working solution of anti-Siglec-15 antibodies (10 nM) were prepared in cell culture medium for a total of 25 μL for each well of a 96-well plate. A working solution of Zenon™ pHrodo™ iFL IgG Labeling Reagent was prepared at 30 nM and 25 μL were added to each well. The mix was incubated for 5 minutes at room temperature to allow the labeling complexes to form. 5 mL of suspension cells at 2×10^6 cells/mL in cell culture medium were prepared and 50 μL of cells were added to each well of the 96-well plate containing the mix of anti-Siglec-15 antibody and the Zenon™ labeling reagent. Cells were incubated with the labeling complex for different timepoints (1-24 hours) under standard cell culture conditions. Fluorescence was analyzed by flow cytometry.

B1: ZLA-1243-E01: fully human anti-Siglec-15 IgG1, silenced Fc, phage display; VH SEQ ID NO: 34, VL SEQ ID NO: 35 (antibody, V domains shown)
VH: QVQLVQSGGGLVQPGRSLRLSCAASGFTFDDYAMHWVRQAPGKGLEWVSGISWNSGSIGYADSVKGRFTISRDNAKNSLYLQMNSLRAEDTALYYCAKGLWPSYDLDAFDIWGQGTMVTVSS
VL: QSALTQPASVSGSPGQSITLSCTGTSSDVGAYNFVSWYQQHPGTAPKLMIYEVSNRPSGVSDRFSGSKSGNTASLTISGLQAEDEADYYCSSYTSTIPPFVFGTGTKVTVL
modifications: IgG1 silenced Fc; ZLA-1243-E01 VH; ZLA-1243-E01 VL
EC50 (ng/mL) hS15 (human Siglec-15 [1]): 174.3 ng/mL
EC50 (ng/mL) mS15 (mouse Siglec-15): 84.88 ng/mL
inhibition of binding of A2A5C7E8 (benchmark 2) (human Siglec-15 [2]; across all concentrations (FIG. 18D)): outperformed 5G12
inhibition of binding of 5G12 (benchmark 1) (human Siglec-15 [2]; at concentrations above 10 nM (FIG. 18C)): outperformed A2A5C7E8
internalization, fold increase over isotype control (Siglec-15 positive cells): approximately 6 fold
